# According to patent US20190330338A1 (UNIVERSITY OF UTAH RESEARCH FOUNDATION, published 2019):
# Read-outs that look alike come from different tables or passages of the source.
# T1: recombinant CD229 (human, UniProt Q9HBG7 48-454, limits assumed)
# T1 construct: Labeled with allophycocyanin in the CAR flow cytometry assay; also called APC-labeled recombinant CD229; immobilized recombinant CD229
# T1 sequence (looked up): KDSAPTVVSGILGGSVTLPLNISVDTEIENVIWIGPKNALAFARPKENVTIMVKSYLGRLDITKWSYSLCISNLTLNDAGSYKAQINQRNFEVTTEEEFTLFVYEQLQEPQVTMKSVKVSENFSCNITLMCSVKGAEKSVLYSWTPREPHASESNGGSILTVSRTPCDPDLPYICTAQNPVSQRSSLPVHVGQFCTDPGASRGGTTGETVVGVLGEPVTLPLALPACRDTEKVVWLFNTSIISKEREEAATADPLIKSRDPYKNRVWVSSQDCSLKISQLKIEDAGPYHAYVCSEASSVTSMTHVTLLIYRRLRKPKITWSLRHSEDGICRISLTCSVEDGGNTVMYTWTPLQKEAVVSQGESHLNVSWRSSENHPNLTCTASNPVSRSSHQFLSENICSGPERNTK
# T2: recombinant CD229 (human, UniProt Q9HBG7 48-454)
# T2 chain: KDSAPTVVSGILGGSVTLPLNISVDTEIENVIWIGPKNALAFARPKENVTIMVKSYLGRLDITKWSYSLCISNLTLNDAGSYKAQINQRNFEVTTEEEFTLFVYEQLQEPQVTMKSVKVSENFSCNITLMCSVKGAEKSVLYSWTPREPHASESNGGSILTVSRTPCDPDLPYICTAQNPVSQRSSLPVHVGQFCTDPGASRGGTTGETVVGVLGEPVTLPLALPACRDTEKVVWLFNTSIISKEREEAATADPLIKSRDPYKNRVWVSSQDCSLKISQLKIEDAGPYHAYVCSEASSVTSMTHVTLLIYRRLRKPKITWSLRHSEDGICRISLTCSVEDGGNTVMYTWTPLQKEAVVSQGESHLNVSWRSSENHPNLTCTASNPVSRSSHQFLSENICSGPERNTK
# How the values were obtained:
# [1] = target: T1, recombinant CD229; experiment: flow cytometry of 293T cells expressing the CAR, stained with APC-labeled recombinant CD229
# Protocol: In the final CAR construct, the scFv can be joined directly to a 45 amino acid hinge domain, which can alter binding properties of the antibodies. […] 20 of the 23 unique scFv binders still recognized CD229 with the new C-terminal fusion partner. All 23 unique binders were cloned into the CAR vector (FIG. 7D). The second-generation CAR construct uses a CD8α hinge and transmembrane domain with a CD3ζ signaling and a 4-1BB costimulatory domain. In addition, a hemagglutinin (HA) tag was added between the scFv and hinge domains to allow the simultaneous assessment of antigen binding and surface expression (FIG. 7D).
# [2] = target: T1, recombinant CD229; experiment: competition SPR on immobilized CD229
# Description: FIGS. 5A, 5B, 5C, 5D, and 5E show the binding, cross-reactivity, and selectivity of anti CD229 CAR T cells. (A) Cross-reactivity screening of 2 anti-CD229 antibody clones expressed as scFv-Fc constructs in mammalian cells by TRF assay using recombinant SLAM family members. […] (B) Cytotoxic activity of primary human T cells expressing CAR constructs based on two antibodies or GFP alone against CD229 positive myeloma cell line U266 and healthy autologous T cells as determined by flow cytometry. Anti-CD229 CARs specifically kill myeloma cells but not healthy T cells co-expressing CD229. […] (E) Competition SPR using immobilized CD229 and sequential injections of the primary antibodies followed by individual injection of antibodies to determine their ability to compete for the epitope recognized by the primary antibody. 1D5 and 2D3 occupy the same epitope space while 2A2 binds to a distinct epitope. Due to the lack of self-competition, 2A2 most likely binds to an epitope occurring twice in recombinant CD229, a tandem Ig domain-containing protein.
# [3] = target: T2, recombinant CD229; experiment: SPR
# [4] = target: T2, recombinant CD229; experiment: SPR
binding result [1],binding result [2],Kd [3] [nM],Kd [4] [nM],Binder
binds,–,–,–,"anti-CD229 CAR construct, Clone 1A9 (other, CAR expressed on cells; not shown: HA tag, CD8alpha hinge and transmembrane domain, 4-1BB co-stimulatory and CD3zeta signaling domains) QITLKESGPTLVKPTQTLTLTCTFSGFSLSTSGVGVGWIRQPPGKALEWLALIYWNDDKRYSPSLKSRLTIAKDTSKNQVVLTMTNMDPVDTATYYCARMGWNDPHMVDYWGQGTLVTVSSLEGGGGSGGGGSGGGASDIQMTQSPSSLSASVGDRVTITCRASQSIGSSLHWYQQKPGKAPKFLIYDASSLESGVPSRFSGSGSGTEFTLTISSLQPDDFATYYCQQYNSYPLTFGGGTKLEIKR"
–,binds,18.4,18.4,"anti-CD229 antibody clone 2A2 expressed as scFv-Fc (Fc fusion, scFv fused C-terminally to an immunoglobulin Fc domain, expressed in mammalian cells; not shown: immunoglobulin Fc domain) QMQLVQSGAEVKKPGSSVKVSCKASGGTFSSYAISWVRQAPGQGLEWMGGIIPIFGTANYAQKFQGRVTITADKSTSTAYMELSSLRSDDTAVYYCARDELWATNYYYMDVWGKGTLVTVSSLEGGGGSGGGGSGGGASQSALTQPRSVSGSPGQSVTISCTGTSSDVGSYNYVSWYQQSPGKAPKLMIYDVSNRPSGVSNRFSGSKSGNTASLTISGLQSEDEADYYCTSYGSYDIPVIFGGGTKLTVLG"
binds,–,–,–,"anti-CD229 CAR construct, Clone 2A2 (other, CAR expressed on cells; also called anti-CD229 CAR clone 2A2; not shown: HA tag, CD8alpha hinge and transmembrane domain, 4-1BB co-stimulatory and CD3zeta signaling domains) QMQLVQSGAEVKKPGSSVKVSCKASGGTFSSYAISWVRQAPGQGLEWMGGIIPIFGTANYAQKFQGRVTITADKSTSTAYMELSSLRSDDTAVYYCARDELWATNYYYMDVWGKGTLVTVSSLEGGGGSGGGGSGGGASQSALTQPRSVSGSPGQSVTISCTGTSSDVGSYNYVSWYQQSPGKAPKLMIYDVSNRPSGVSNRFSGSKSGNTASLTISGLQSEDEADYYCTSYGSYDIPVIFGGGTKLTVLG"
